From patent publication US20230257472A1 (JIANGSU HENGRUI MEDICINE, published 2023)

T1: human CD70 on cells (CD70-positive 786-O cells, Raji cells, CHO-S cells expressing human full-length CD70, … (human, UniProt P32970 1-193))
T1 construct: whole, on cells; Endogenous on 786-O, Raji and U266 cells; transfected full-length human CD70 on CHO-S cells; also called CD70-positive cells
T1 sequence (looked up): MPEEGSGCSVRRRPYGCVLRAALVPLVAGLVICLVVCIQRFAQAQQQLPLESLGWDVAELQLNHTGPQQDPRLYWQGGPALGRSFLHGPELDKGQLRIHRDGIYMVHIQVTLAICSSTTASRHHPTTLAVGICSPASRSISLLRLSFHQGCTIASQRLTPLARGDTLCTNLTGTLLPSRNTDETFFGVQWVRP

T2: His-tagged CD70 protein extracellular domain (His-TNC-CD70) (human)
T2 construct: Expressed in 293 cells; also called human His-TNC-CD70 antigen; human CD70 antigen
T2 chain: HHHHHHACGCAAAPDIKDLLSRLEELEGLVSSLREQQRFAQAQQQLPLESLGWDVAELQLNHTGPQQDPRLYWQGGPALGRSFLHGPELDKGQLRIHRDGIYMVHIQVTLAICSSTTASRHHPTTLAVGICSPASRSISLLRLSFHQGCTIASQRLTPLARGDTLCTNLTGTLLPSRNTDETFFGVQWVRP


Tests used:
[1] = target: fusion protein of the CD70 protein extracellular domain and Human-IgG1-Fc (human CD70-Fc) (human); experiment: ELISA, plate coated with 1 µg/mL human CD70-Fc, HRP goat anti-human F(ab')2 detection
Sequence of fusion protein of the CD70 protein extracellular domain and Human-IgG1-Fc (human CD70-Fc) (human) (chain, as listed by the source limits assumed): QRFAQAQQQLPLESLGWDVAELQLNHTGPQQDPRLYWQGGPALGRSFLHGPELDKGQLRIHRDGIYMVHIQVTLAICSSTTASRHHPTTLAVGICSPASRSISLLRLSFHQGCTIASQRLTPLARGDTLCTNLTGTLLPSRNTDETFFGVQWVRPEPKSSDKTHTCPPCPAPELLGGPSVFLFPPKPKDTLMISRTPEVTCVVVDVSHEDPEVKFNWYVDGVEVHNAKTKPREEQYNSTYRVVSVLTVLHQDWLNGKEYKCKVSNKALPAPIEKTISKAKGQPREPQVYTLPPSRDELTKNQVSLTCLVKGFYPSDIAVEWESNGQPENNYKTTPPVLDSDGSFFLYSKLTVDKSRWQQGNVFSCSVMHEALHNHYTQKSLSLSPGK
Experimental: (§1) The binding ability of the anti-CD70 antibodies was determined by the amount of the antibodies bound to the CD70 antigen protein immobilized on the ELISA plate. 1 μg/mL human CD70-Fc (set forth in SEQ ID NO: 2), monkey CD70-Fc (set forth in SEQ ID NO: 82) and mouse CD70-Fc (set forth in SEQ ID NO: 83) were coated, incubated and blocked. […] OD450 values were measured on a microplate reader.

[2] = target: T3, fusion protein of the monkey CD70 protein extracellular domain and Human-IgG1-Fc (monkey CD70-Fc) (monkey); experiment: ELISA, plate coated with 1 µg/mL monkey CD70-Fc, HRP goat anti-human F(ab')2 detection
T3 construct: also called monkey CD70 antigen
T3 sequence (chain, as listed by the source limits assumed): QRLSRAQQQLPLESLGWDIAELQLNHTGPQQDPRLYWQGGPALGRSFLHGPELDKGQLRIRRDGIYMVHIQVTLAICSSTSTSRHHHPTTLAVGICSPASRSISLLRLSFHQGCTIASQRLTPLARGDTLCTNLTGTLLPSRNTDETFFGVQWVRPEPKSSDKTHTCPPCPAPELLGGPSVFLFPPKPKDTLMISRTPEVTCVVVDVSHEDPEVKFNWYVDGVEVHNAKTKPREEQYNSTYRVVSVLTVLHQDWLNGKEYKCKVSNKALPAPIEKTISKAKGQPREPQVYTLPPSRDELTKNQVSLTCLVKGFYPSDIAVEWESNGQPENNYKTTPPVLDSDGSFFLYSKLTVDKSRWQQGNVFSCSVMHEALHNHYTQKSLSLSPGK
Experimental: as §1

[3] = target: T1, human CD70 on cells (CD70-positive …); experiment: flow cytometry competition on CHO-S cells expressing human full-length CD70; blocked ligand: biotin-labeled CD27-Fc, Alexa Fluor 488 streptavidin detection
Experimental: The cell-blocking activity of the anti-CD70 antibodies was assayed by flow cytometry. CHO-S cells expressing human full-length CD70 (Invitrogen, R80007) at 1×10⁶ cells/mL were blocked with 1% BSA PBS buffer, followed by the addition with diluted anti-CD70 antibody samples at different concentrations and biotin-labeled CD27-Fc (set forth in SEQ ID NO: 84), and the mixture was incubated for 1 h. After the plate was washed twice, Alexa Fluor 488-streptavidin (Invitrogen, CAT #S11223) was added, and the mixture was incubated for 1 h. After the plate was washed twice, fluorescence signals were read using a flow cytometer.

[4] = target: T1, human CD70 on cells (CD70-positive …); experiment: flow cytometry on CD70-positive 786-O cells, Alexa Fluor 488 goat anti-human (H+L) detection
Experimental: (§2) 786-O cells (ATCC, CRL-1932) or Raji cells (ATCC, CCL-86) at 1×10⁶ cells/mL were blocked with 1% BSA PBS buffer, followed by the addition of diluted anti-CD70 antibody samples at different concentrations were added, and the mixture was incubated for 1 h. After the plate was washed twice, Alexa Fluor 488-goat anti-human (H+L) antibody (Invitrogen, CAT #A 11013) was added, and the mixture was incubated for 1 h. After the plate was washed twice, fluorescence signals were read using a flow cytometer.

[5] = target: T4, fusion protein of the murine CD70 protein extracellular domain and Human-IgG1-Fc (mouse CD70-Fc) (mouse); experiment: ELISA, plate coated with 1 µg/mL mouse CD70-Fc, HRP goat anti-human F(ab')2 detection
T4 construct: also called mouse CD70 antigen
T4 sequence (chain, as listed by the source limits assumed): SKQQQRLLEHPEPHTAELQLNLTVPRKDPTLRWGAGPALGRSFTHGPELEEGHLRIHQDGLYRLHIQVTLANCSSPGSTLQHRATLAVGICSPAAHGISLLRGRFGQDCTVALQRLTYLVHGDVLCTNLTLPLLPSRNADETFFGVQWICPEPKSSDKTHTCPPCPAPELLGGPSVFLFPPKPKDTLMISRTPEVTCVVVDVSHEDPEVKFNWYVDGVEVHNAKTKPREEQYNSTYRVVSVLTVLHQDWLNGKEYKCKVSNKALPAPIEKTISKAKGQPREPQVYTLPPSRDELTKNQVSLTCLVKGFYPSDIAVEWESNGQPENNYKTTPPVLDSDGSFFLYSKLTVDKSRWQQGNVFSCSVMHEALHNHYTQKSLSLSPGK
Experimental: as §1

[6] = target: T1, human CD70 on cells (CD70-positive …); experiment: cell-based or functional assay
[7] = target: T2, His-tagged CD70 protein extracellular …; experiment: SPR Biacore T200, antibody captured by anti-human Fc, His-TNC-CD70 in flow, 1:1 model
Experimental: The affinity of the chimeric and humanized antibodies of the present disclosure for the human CD70 antigen was tested using a Biacore instrument. The procedures are as follows:
The human Fc capture molecules were covalently coupled to a CM5 biosensor chip (CAT #BR-1005-30, GE) according to the method described in the instructions of the human Fc capture kit (CAT #BR-1008-39, GE) for affinity capture of the antibodies to be tested. Then, a human His-TNC-CD70 antigen (set forth in SEQ ID NO: 1) flowed through the surface of the chip, and the reaction signal was detected in real time using a Biacore T200 instrument to obtain association and dissociation curves. After the dissociation was completed for each cycle, the biochip was washed and regenerated with a regeneration solution configured in the human antibody capture kit (GE). Data were fitted using a 1:1 model.

[8] = target: T1, human CD70 on cells (CD70-positive …); experiment: flow cytometry on CD70-positive Raji cells, Alexa Fluor 488 goat anti-human (H+L) detection
Experimental: as §2

binding result [1]	EC50 (read off the curve) [2]	IC50 (read off the curve) [3]	EC50 (read off the curve) [4]	binding result [5]	IC50 (ng/mL), inhibition of IL-8 secretion mediated by CD70/CD27 binding (U266 cells + HT1080/CD27 cells) [6]	Imax (%), maximum inhibition rate of IL-8 secretion from CD27 cells [6]	Kd [7]	koff [7]	kon [7]	EC50 (read off the curve) [1]	EC50 (read off the curve) [8]	binding result [2]	Binder
binds	~0.03 µg/mL	~0.4 µg/mL	~0.02 µg/mL	no binding (tested: 10 µg/mL (log 1))	21 ng/mL	98.7%	28.6 pM	0.000174 s⁻¹	6.09e+06 M⁻¹ s⁻¹				huB7002 (antibody, human IgG1, kappa, V domains shown, Humanized IgG1) VH: EVQLVQSGSELKKPGASVKVSCKASGYTFTNYGMNWVRQAPGQGLEWMGWINTYTGEPTYADEFKGRFVFSLDTSVSTAYLQISSLKAEDTAVYYCARGDSFTTEILRNWYFDVWGQGTTVTVSS VL: DIQMTQSPSSLSASVGDRVTITCGASENIYGALNWYQQKPGKVPKLLIYGATNLADGVPSRFSGSGSGTDFTLTISSLQPEDVATYYCQNVLSTPWTFGGGTKVEIKR
	~0.05 µg/mL	~0.4 µg/mL	~0.03 µg/mL	no binding (tested: 10 µg/mL (log 1))	14.2 ng/mL	93.8%	46.5 pM	0.000145 s⁻¹	3.12e+06 M⁻¹ s⁻¹	~0.03 µg/mL	~0.02 µg/mL		huF4011 (antibody, human IgG1, kappa, V domains shown, Humanized IgG1) VH: EVQLVQSGAEVKKPGSSVKVSCKASGDTFPRYNMHWVRQAPGQGLEWMGAIFPGTGETSYNQNFKGRVTLTADKSTSTAYMELSSLRSEDTAVYYCARNSYYDYAWFTYWGQGTLVTVSS VL: DIVMTQSPDSLAVSLGERATINCRASKSVSSSGYSFMHWYQQKPGQPPKLLISLADNLESGVPDRFSGSGSGTDFTLTISSLQAEDVAVYYCQHSREFPPTFGQGTKLEIKR
		~0.4 µg/mL	~0.02 µg/mL	no binding (tested: 10 µg/mL (log 1))			35.5 pM	0.00013 s⁻¹	3.67e+06 M⁻¹ s⁻¹	~0.04 µg/mL	~0.02 µg/mL	binds	huB1010 (antibody, human IgG1, kappa, V domains shown, Humanized IgG1) VH: EVQMVQSGAEVKKPGASVKVSCKASGYTFTTYNIHWVRQAPGQGLEWMGDIYPGTGDASYNQKFRDRVTMTRDTSTSTVYMELSSLRSEDTAVYYCATFSRFDGWFAYWGQGTLVTVSS VL: DIVMTQSPDSLAVSLGERATINCRASRSVSTSGYSYMHWYQQKPGQPPKLLIYLADNLESGVPDRFSGSGSGTDFTLTISSLQAEDVAVYYCQHSRELPYTFGGGTKVEIKR
